What all share (assay): sandwich EIA: 82E1 capture, HRP-labelled IBL-102; antigen 4000 pg/mL read on the E22P-Aβ42 standard curve
Test [1] deals with M35P-Aβ42 (Homo sapiens (Human)) (UniProt P05067).
Test [2] concerns the target G25P-Aβ42 (Homo sapiens (Human)) (UniProt P05067).
Test [3] concerns the target V24P-Aβ42 (Homo sapiens (Human)) (UniProt P05067).
The target of test [4] is E22V-Aβ42 (Homo sapiens (Human)) (UniProt P05067).
Test [5] deals with D23P-Aβ42 (Homo sapiens (Human)) (UniProt P05067).
Test [6] concerns the target A21P-Aβ42 (Homo sapiens (Human)) (UniProt P05067).

B1: IBL-102 antibody (antibody, mouse IgG1, kappa, V domains shown)
VH: EVQLQQSGPELVKPGASVKIFCKASGYTFTDYNMDWVKQSHGKRLEWIGDINPNTGVTIDNPKFKGKATLTVDESSSTVYMELRSLSSEDTAVYYCARLPDNYVMDYWGQGTSVTVSA
VL: DVVMTQTPLSLPVSLGDQASISCRCSQSLVHRNGNTNLHWYLQKSGQSPKLLIYKVSNRFSGVPDRFSGSGSGTDFTLKISRVEAEDLGVYFCSQSTYVPLTFGVGTKLELKR
Take B1: the cross-reaction rate in test [1] amounted to 0.68%; in test [2], 0.53%; in test [3] it was 0.33%; in test [4] it was 0.28%; in test [5], 0.5%; in test [6] it was 0.27%.

The record behind these values is US20180051071A1.
